This passage reports IC50, binding result and Kd results from paper PMC10244698, “Polypyrimidine tract binding protein 1 (PTBP1) contains a novel regulatory sequence, the rBH3, that binds the prosurvival protein MCL1” (The Journal of Biological Chemistry, 2023).

Ends that are not written are not given here. * marks the point of attachment. FITC = O=C1OC2(c3ccc(O)cc3Oc3cc(O)ccc32)c2ccc(NC(=S)*)cc21; Ahx = NCCCCCC(=O)O Bounds are passed on as bounds.

Sequences and labels used below:
B1: RNA recognition motif 1 (RRM1) of polypyrimidine tract binding protein 1 (PTBP1), residues 55-147 (domain or fragment, human, UniProt P26599 55-147, looked up)
chain: GVPSRVIHIRKLPIDVTEGEVISLGLPFGKVTNLLMLKGKNQAFIEMNTEEAANTMVNYYTSVTPVLRGQPIYIQFSNHKELKTDSSPNQARA
notes: human PTBP1 RRM1, UniProt P26599, residues 55-147, cloned into pET28a; 15N-labelled for the NMR experiment; also called PTBP1-RRM1; recombinant wildtype RRM1 protein; source: E. coli BL21 (DE3), purified (nickel chromatography, gel filtration)
B4: myeloid cell leukemia-1 (MCL1), residues 163-326 (domain or fragment, human, UniProt Q07820 163-326, looked up)
chain: TPPPAEEEEDELYRQSLEIISRYLREQATGAKDTKPMGRSGATSRKALETLRRVGDGVQRNHETAFQGMLRKLDIKNEDDVKSLSRVMIHVFSDGVTNWGRIVTLISFGAFVAKHLKTINQESCIEPLAESITDVLVRTKRDWLVKQRGWDGFVEFFHVEDLEG
notes: human MCL1, UniProt Q07820, residues 163-326, cloned into pET28a; also called recombinant MCL1; source: E. coli BL21 (DE3), purified (nickel chromatography, gel filtration)

Data set [1] concerns the target B4. As to the kind of experiment: fluorescence polarisation; competitive FPA: 100 nM MCL1, 10 nM FITC-BAK BH3 peptide, unlabeled RRM1 titrated; 1x PBS pH 7.4, 0.1% DMSO. To be noted: both partners purified. In general terms: Polarisation of emitted light reports the rotation of a fluorescent probe.
Data set [2] has as its target B4. Nature of the data set: fluorescence polarisation; direct FPA: 10 nM FITC-RRM1_(rBH3) peptide, recombinant MCL1 titrated; 1x PBS pH 7.4, 1% DMSO. The following applies: both partners purified.
For data set [3], the target named is B1. As to the kind of experiment: fluorescence polarisation; competitive FPA: 50 nM RRM1, 0.5 nM FTSC-labeled RNA from the 3'UTR of MCL1 mRNA, MCL1 titrated; 1x PBS pH 7.4, 1% DMSO, background of tRNA. The following applies: both partners purified.
In a further data set the target is PTBP1 RRM1 (human, UniProt P26599 55-147). Nature of the data set: fluorescence polarization; tRNA background; 0.5 nM RNA; FP: 1x PBS pH 7.4, 1% DMSO, tRNA background, temperature not stated; EMSA: 10 mM Hepes pH 7.3, 20 mM KCl, 1 mM MgCl2, 1 mM DTT, tRNA (10 ug/ml in Methods, 10 ug/uL in Fig S2 legend), room temperature, 1% TBE agarose. To be noted: protein: recombinant; tags: N-terminal His6 (pET28a); label: 3' FTSC (fluorescein-5-thiosemicarbazide); single-stranded, designed as unstructured.

Take B1: the IC50 – broadly, the concentration at which inhibition is half-maximal – in data set [1] turned out to be 88 ± 3 nM.

B2: FITC-labeled BAK peptide derived from its BH3 sequence (peptide)
peptide: {FITC-Ahx}-GQVGRQLAIIGDDINRRYD
notes: also called F-BAKBH3; FITC-BAK; source: synthetic peptide
Take B2: the binding result in data set [1] is given as “binds”.

B3: FITC-labeled peptide containing the RRM1 rBH3 sequence (peptide)
peptide: {FITC-Ahx}-NTEEAANTMVNYYTSVTPVLRGQ
notes: stretch of PTBP1 RRM1 with the rBH3 motif (E104-Y114) on the alpha2 helix; also called F-RRM1_(rBH3); FITC-RRM1_(rBH3); source: synthetic peptide (GenScript)
As to B3, in data set [2], the Kd (commonly the equilibrium constant for the complex coming apart) was less than 10 nM.
In data set [3], B4 gave an IC50 of 74.6 ± 37.3 nM.
As for ACGCUUCUCUCAGGGAAAAACAUGC (ssRNA) [MCL1 3'UTR 25-mer RNA], the Kd in the data set with PTBP1 RRM1 amounted to 16.1 ± 7.6 nM.
